Experiments:
[1] = biological target: H46R/H48Q SOD1 artificial copper site mutant (UniProt P00441); test: native MS; nanoESI of SOD1 at different protein concentrations in 200 mM NH4OAc (pH 6.8), gentle conditions; monomer and dimer signal compared; dimer to monomers
[2] = biological target: H46R/H48Q SOD1 with ebselen conjugated at Cys111 (UniProt P00441); test: as above

Row | Kd [1] | Kd [2] | Substance
1 | 5.3 µM | – | H46R/H48Q SOD1 artificial copper site mutant (from UniProt P00441 2-154) (enzyme)
2 | – | 0.22 µM | H46R/H48Q SOD1 with ebselen conjugated at Cys111 (from UniProt P00441 2-154) (enzyme)
